Test results published in paper doi:10.1101/2021.07.29.454247 (bioRxiv, 2021).

Target: endogenous TRPM2 of mouse brain (mouse (endogenous in brain), UniProt Q91YD4 1-1506)
Test: co-IP

endogenous TRPM2 of mouse brain, sequence (Q91YD4 whole entry): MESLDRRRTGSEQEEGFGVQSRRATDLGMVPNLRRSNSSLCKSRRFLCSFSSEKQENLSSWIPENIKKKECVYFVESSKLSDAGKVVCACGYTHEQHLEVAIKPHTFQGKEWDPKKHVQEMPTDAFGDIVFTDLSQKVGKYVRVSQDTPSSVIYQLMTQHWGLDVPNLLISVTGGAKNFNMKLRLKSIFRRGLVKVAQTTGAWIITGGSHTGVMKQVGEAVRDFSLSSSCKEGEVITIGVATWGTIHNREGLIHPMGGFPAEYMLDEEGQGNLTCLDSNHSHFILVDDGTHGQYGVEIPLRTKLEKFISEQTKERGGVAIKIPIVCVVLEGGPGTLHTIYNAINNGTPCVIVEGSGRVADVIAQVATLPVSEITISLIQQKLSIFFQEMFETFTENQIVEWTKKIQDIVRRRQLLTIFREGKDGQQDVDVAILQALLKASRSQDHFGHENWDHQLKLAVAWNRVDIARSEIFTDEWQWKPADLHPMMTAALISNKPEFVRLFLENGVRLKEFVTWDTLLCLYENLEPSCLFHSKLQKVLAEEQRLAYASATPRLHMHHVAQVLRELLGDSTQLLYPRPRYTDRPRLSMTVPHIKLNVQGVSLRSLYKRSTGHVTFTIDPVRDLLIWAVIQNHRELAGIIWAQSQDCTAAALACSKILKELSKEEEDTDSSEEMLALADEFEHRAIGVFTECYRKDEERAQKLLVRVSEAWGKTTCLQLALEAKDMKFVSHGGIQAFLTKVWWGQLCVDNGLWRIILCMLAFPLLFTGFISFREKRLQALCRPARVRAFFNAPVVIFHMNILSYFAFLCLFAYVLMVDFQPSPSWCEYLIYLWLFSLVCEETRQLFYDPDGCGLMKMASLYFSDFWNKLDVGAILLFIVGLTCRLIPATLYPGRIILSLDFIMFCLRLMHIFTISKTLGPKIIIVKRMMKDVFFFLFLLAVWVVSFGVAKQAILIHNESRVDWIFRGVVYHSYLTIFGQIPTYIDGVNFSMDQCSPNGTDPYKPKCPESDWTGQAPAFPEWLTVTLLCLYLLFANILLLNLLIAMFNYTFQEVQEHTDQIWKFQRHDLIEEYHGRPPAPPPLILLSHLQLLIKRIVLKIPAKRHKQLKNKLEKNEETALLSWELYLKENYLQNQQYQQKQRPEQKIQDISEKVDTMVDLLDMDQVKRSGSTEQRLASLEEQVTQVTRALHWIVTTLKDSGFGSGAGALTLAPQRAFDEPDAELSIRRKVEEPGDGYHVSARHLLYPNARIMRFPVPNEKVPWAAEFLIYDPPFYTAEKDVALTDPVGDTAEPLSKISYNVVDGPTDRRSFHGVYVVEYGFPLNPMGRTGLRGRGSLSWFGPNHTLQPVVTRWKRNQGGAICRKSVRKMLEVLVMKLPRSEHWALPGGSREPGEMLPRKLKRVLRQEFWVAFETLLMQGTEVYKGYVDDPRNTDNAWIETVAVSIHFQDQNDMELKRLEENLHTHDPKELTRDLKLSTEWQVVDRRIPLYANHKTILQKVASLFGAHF

B1: endogenous PKCγ of mouse brain and neurons (enzyme)
chain: not shown
fold of PKCγ pulled down by anti-TRPM2, MCAO against sham: ~1.5 fold
